# Experimental data: patent US20250163127A1
# Target: human PD-1 (human) (UniProt Q15116)
# Sequence (Q15116 25-288): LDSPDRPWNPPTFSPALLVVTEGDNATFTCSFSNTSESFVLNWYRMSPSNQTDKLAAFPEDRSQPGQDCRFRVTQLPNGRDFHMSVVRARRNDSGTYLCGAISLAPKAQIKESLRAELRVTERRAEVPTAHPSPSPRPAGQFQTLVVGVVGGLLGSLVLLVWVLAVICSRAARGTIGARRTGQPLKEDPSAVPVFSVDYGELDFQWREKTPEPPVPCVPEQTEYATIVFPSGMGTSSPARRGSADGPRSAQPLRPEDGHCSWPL
row,IFN gamma levels pg/mL (MLR) [pg/mL],Binder
1,1080,variant PD-L2 IgV I13V/H15Q/T47A/H69L/R76G/V89D Fc fusion (Fc fusion) LFTVTVPKELYIVEQGSNVTLECNFDTGSHVNLGAITASLQKVENDASPHRERATLLEEQLPLGKASFLIPQVQVGDEGQYQCIIIYGDAWDYKYLTLKVKA
2,1950,variant PD-L2 IgV I13V/Q72H/R76G/I86T Fc fusion (Fc fusion) LFTVTVPKELYIVEHGSNVTLECNFDTGSHVNLGAITASLQKVENDTSPHRERATLLEEQLPLGKASFHIPHVQVGDEGQYQCIITYGVAWDYKYLTLKVKA
3,1370,variant PD-L2 IgV I13V/S67L/Q82R/V89D Fc fusion (Fc fusion) LFTVTVPKELYIVEHGSNVTLECNFDTGSHVNLGAITASLQKVENDTSPHRERATLLEEQLPLGKALFHIPQVQVRDEGQYRCIIIYGDAWDYKYLTLKVKA
4,1380,variant PD-L2 IgV I13V/H15Q/E44D/V89D Fc fusion (Fc fusion) LFTVTVPKELYIVEQGSNVTLECNFDTGSHVNLGAITASLQKVDNDTSPHRERATLLEEQLPLGKASFHIPQVQVRDEGQYQCIIIYGDAWDYKYLTLKVKA
5,1020,variant PD-L2 IgV S67L/I86T Fc fusion (Fc fusion) LFTVTVPKELYIIEHGSNVTLECNFDTGSHVNLGAITASLQKVENDTSPHRERATLLEEQLPLGKALFHIPQVQVRDEGQYQCIITYGVAWDYKYLTLKVKA
6,936,variant PD-L2 IgV I13V/S39I/E44D/Q82R/V89D Fc fusion (Fc fusion) LFTVTVPKELYIVEHGSNVTLECNFDTGSHVNLGAITAILQKVDNDTSPHRERATLLEEQLPLGKASFHIPQVQVRDEGQYRCIIIYGDAWDYKYLTLKVKA
7,1260,variant PD-L2 IgV I13V/H15Q/S39I/E44D/S67L Fc fusion (Fc fusion) LFTVTVPKELYIVEQGSNVTLECNFDTGSHVNLGAITAILQKVDNDTSPHRERATLLEEQLPLGKALFHIPQVQVRDEGQYQCIIIYGVAWDYKYLTLKVKA
8,1310,variant PD-L2 IgV S39I/V89D Fc fusion (Fc fusion) LFTVTVPKELYIIEHGSNVTLECNFDTGSHVNLGAITAILQKVENDTSPHRERATLLEEQLPLGKASFHIPQVQVRDEGQYQCIIIYGDAWDYKYLTLKVKA
9,1120,variant PD-L2 IgV I13V/H15Q/V89D Fc fusion (Fc fusion) LFTVTVPKELYIVEQGSNVTLECNFDTGSHVNLGAITASLQKVENDTSPHRERATLLEEQLPLGKASFHIPQVQVRDEGQYQCIIIYGDAWDYKYLTLKVKA
10,1360,variant PD-L2 IgV I13V/H15Q/I36V/T47A/S67L/V89D Fc fusion (Fc fusion) LFTVTVPKELYIVEQGSNVTLECNFDTGSHVNLGAVTASLQKVENDASPHRERATLLEEQLPLGKALFHIPQVQVRDEGQYQCIIIYGDAWDYKYLTLKVKA
11,1230,variant PD-L2 IgV S67L/V89D Fc fusion (Fc fusion) LFTVTVPKELYIIEHGSNVTLECNFDTGSHVNLGAITASLQKVENDTSPHRERATLLEEQLPLGKALFHIPQVQVRDEGQYQCIIIYGDAWDYKYLTLKVKA
12,1430,variant PD-L2 IgV I13V/H15Q/Q82R Fc fusion (Fc fusion) LFTVTVPKELYIVEQGSNVTLECNFDTGSHVNLGAITASLQKVENDTSPHRERATLLEEQLPLGKASFHIPQVQVRDEGQYRCIIIYGVAWDYKYLTLKVKA
13,1470,variant PD-L2 IgV I13V/H15Q/T47A/Q72H/R76G Fc fusion (Fc fusion) LFTVTVPKELYIVEQGSNVTLECNFDTGSHVNLGAITASLQKVENDASPHRERATLLEEQLPLGKASFHIPHVQVGDEGQYQCIIIYGVAWDYKYLTLKVKA
14,1190,variant PD-L2 IgV I13V/H15Q/R76G/D77N/Q82R/V89D Fc fusion (Fc fusion) LFTVTVPKELYIVEQGSNVTLECNFDTGSHVNLGAITASLQKVENDTSPHRERATLLEEQLPLGKASFHIPQVQVGNEGQYRCIIIYGDAWDYKYLTLKVKA
15,1600,variant PD-L2 IgV I13V/H15Q/Q82R/V89D Fc fusion (Fc fusion) LFTVTVPKELYIVEQGSNVTLECNFDTGSHVNLGAITASLQKVENDTSPHRERATLLEEQLPLGKASFHIPQVQVRDEGQYRCIIIYGDAWDYKYLTLKVKA
16,1700,variant PD-L2 IgV I13V/H15Q/T47A/Q82R Fc fusion (Fc fusion) LFTVTVPKELYIVEQGSNVTLECNFDTGSHVNLGAITASLQKVENDASPHRERATLLEEQLPLGKASFHIPQVQVRDEGQYRCIIIYGVAWDYKYLTLKVKA
17,1530,variant PD-L2 IgV I12V/I13V/H15Q/T47A/Q82R/V89D Fc fusion (Fc fusion) LFTVTVPKELYVVEQGSNVTLECNFDTGSHVNLGAITASLQKVENDASPHRERATLLEEQLPLGKASFHIPQVQVRDEGQYRCIIIYGDAWDYKYLTLKVKA
18,1720,variant PD-L2 IgV I13V/H15Q/V31A/N45S/Q82R/V89D Fc fusion (Fc fusion) LFTVTVPKELYIVEQGSNVTLECNFDTGSHANLGAITASLQKVESDTSPHRERATLLEEQLPLGKASFHIPQVQVRDEGQYRCIIIYGDAWDYKYLTLKVKA
19,1190,variant PD-L2 IgV N32D/S67L/V89D Fc fusion (Fc fusion) LFTVTVPKELYIIEHGSNVTLECNFDTGSHVDLGAITASLQKVENDTSPHRERATLLEEQLPLGKALFHIPQVQVRDEGQYQCIIIYGDAWDYKYLTLKVKA
20,868,variant PD-L2 IgV I13V/S67L/V89D Fc fusion (Fc fusion) LFTVTVPKELYIVEHGSNVTLECNFDTGSHVNLGAITASLQKVENDTSPHRERATLLEEQLPLGKALFHIPQVQVRDEGQYQCIIIYGDAWDYKYLTLKVKA

# More lines, now with the values behind:
row,Binder,IFN gamma levels pg/mL (MLR) [pg/mL]
1,variant PD-L2 IgV E59G/Q82R Fc fusion (Fc fusion) LFTVTVPKELYIIEHGSNVTLECNFDTGSHVNLGAITASLQKVENDTSPHRERATLLEGQLPLGKASFHIPQVQVRDEGQYRCIIIYGVAWDYKYLTLKVKA,1510
2,variant PD-L2 IgV H15Q/Q72H/Q74R/R76G/I86T Fc fusion (Fc fusion) LFTVTVPKELYIIEQGSNVTLECNFDTGSHVNLGAITASLQKVENDTSPHRERATLLEEQLPLGKASFHIPHVRVGDEGQYQCIITYGVAWDYKYLTLKVKA,934
3,variant PD-L2 IgV H15Q/R76G/I85F Fc fusion (Fc fusion) LFTVTVPKELYIIEQGSNVTLECNFDTGSHVNLGAITASLQKVENDTSPHRERATLLEEQLPLGKASFHIPQVQVGDEGQYQCIFIYGVAWDYKYLTLKVKA,1730
4,variant PD-L2 IgV H15Q/N32D/S67L/V89D Fc fusion (Fc fusion) LFTVTVPKELYIIEQGSNVTLECNFDTGSHVDLGAITASLQKVENDTSPHRERATLLEEQLPLGKALFHIPQVQVRDEGQYQCIIIYGDAWDYKYLTLKVKA,1290
5,variant PD-L2 IgV H15Q/S39I/S67L/V89D Fc fusion (Fc fusion) LFTVTVPKELYIIEQGSNVTLECNFDTGSHVNLGAITAILQKVENDTSPHRERATLLEEQLPLGKALFHIPQVQVRDEGQYQCIIIYGDAWDYKYLTLKVKA,1230
6,variant PD-L2 IgV H15Q/T47A/Q72H/R76G Fc fusion (Fc fusion) LFTVTVPKELYIIEQGSNVTLECNFDTGSHVNLGAITASLQKVENDASPHRERATLLEEQLPLGKASFHIPHVQVGDEGQYQCIIIYGVAWDYKYLTLKVKA,1460
7,variant PD-L2 IgV E44D/S67L/Q72H/Q82R/V89D Fc fusion (Fc fusion) LFTVTVPKELYIIEHGSNVTLECNFDTGSHVNLGAITASLQKVDNDTSPHRERATLLEEQLPLGKALFHIPHVQVRDEGQYRCIIIYGDAWDYKYLTLKVKA,1280
8,variant PD-L2 IgV H15Q/S67L/Q72H/R76G/V89D Fc fusion (Fc fusion) LFTVTVPKELYIIEQGSNVTLECNFDTGSHVNLGAITASLQKVENDTSPHRERATLLEEQLPLGKALFHIPHVQVGDEGQYQCIIIYGDAWDYKYLTLKVKA,1060
9,variant PD-L2 IgV H15Q/C23S/I86T Fc fusion (Fc fusion) LFTVTVPKELYIIEQGSNVTLESNFDTGSHVNLGAITASLQKVENDTSPHRERATLLEEQLPLGKASFHIPQVQVRDEGQYQCIITYGVAWDYKYLTLKVKA,1850
10,variant PD-L2 IgV H15Q/E44D/R76G/I85F Fc fusion (Fc fusion) LFTVTVPKELYIIEQGSNVTLECNFDTGSHVNLGAITASLQKVDNDTSPHRERATLLEEQLPLGKASFHIPQVQVGDEGQYQCIFIYGVAWDYKYLTLKVKA,1390
11,variant PD-L2 IgV H15Q/S67L/I86T Fc fusion (Fc fusion) LFTVTVPKELYIIEQGSNVTLECNFDTGSHVNLGAITASLQKVENDTSPHRERATLLEEQLPLGKALFHIPQVQVRDEGQYQCIITYGVAWDYKYLTLKVKA,1030
12,variant PD-L2 IgV E44D/V89D/W91R Fc fusion (Fc fusion) LFTVTVPKELYIIEHGSNVTLECNFDTGSHVNLGAITASLQKVDNDTSPHRERATLLEEQLPLGKASFHIPQVQVRDEGQYQCIIIYGDARDYKYLTLKVKA,1560
13,variant PD-L2 IgV H15Q/V31M/S67L/Q82R/V89D Fc fusion (Fc fusion) LFTVTVPKELYIIEQGSNVTLECNFDTGSHMNLGAITASLQKVENDTSPHRERATLLEEQLPLGKALFHIPQVQVRDEGQYRCIIIYGDAWDYKYLTLKVKA,1210
14,variant PD-L2 IgV H15Q/S67L/R76G Fc fusion (Fc fusion) LFTVTVPKELYIIEQGSNVTLECNFDTGSHVNLGAITASLQKVENDTSPHRERATLLEEQLPLGKALFHIPQVQVGDEGQYQCIIIYGVAWDYKYLTLKVKA,1430
15,variant PD-L2 IgV H15Q/T47A/Q82R Fc fusion (Fc fusion) LFTVTVPKELYIIEQGSNVTLECNFDTGSHVNLGAITASLQKVENDASPHRERATLLEEQLPLGKASFHIPQVQVRDEGQYRCIIIYGVAWDYKYLTLKVKA,1320
16,variant PD-L2 IgV H15Q/L33P/T47A/S67L/P71S/V89D Fc fusion (Fc fusion) LFTVTVPKELYIIEQGSNVTLECNFDTGSHVNPGAITASLQKVENDASPHRERATLLEEQLPLGKALFHISQVQVRDEGQYQCIIIYGDAWDYKYLTLKVKA,1290
17,variant PD-L2 IgV H15Q/S39I/I86T Fc fusion (Fc fusion) LFTVTVPKELYIIEQGSNVTLECNFDTGSHVNLGAITAILQKVENDTSPHRERATLLEEQLPLGKASFHIPQVQVRDEGQYQCIITYGVAWDYKYLTLKVKA,1420
